Results on 11 sequences are retold here after the DeepSol protein solubility set.

The data set is described as follows: soluble on expression in E. coli; label from the status in PepcDB or PDB records.
Consider “MSLKRTITPVHEVQTEWVHLHYAESSIFKEVYGFVGTQGTVNLEGVRYTPVGRPSKTLLVFMHPASTLQLLPMPRELARHGAHVLCAGSRYQRNDSALIMENVVVDLGAYIRHAKEVWKYEKVVLVGWSGGGSLSLLYQSQAENPTISTTPAGDPCSIKQAGLMPADAFIFQAAHTGRARMLSEWIDPSVLDENDPDRIDPGLNLYATTCRPPYSADFLAAFRAGQRARLRRRTAWVKETLETLRRKGGQEVERGFVTHRTMADPRFLDPTIEPNDRPIGRCFMGIPETVNNGPVGIARFSTLRAWLSQWSPDDSNADGVTCAKSLTVPFLAIEHSADDAVPQSHVRQVFEAASATDKSMTVLQGATHYFLGQPEMLQQAATICLDWLAERGLHDEGHHHHHH”, for which the “soluble on expression in E. coli” value is “soluble”. “MSLKSIFISGAANGIGKAVALKFLHEGWLVGAYDLAEITYSHPNLRWGYLNVRQSESWDKALEDFATHTGGTIDVVDNNAGVIIEGPLQDAEEGSVDKLLAINVNGVTLGARAAHPYLARTPGAQLLNMSSASAVYGQPQIAVYSASKFYVAGLTEALNLEWRKDDIRVVDVWPLWAKTDLVNGVKAKSLKRLGVRITPEQVAQAVWDAVHPKSRWAKGKVHHGVSKLDKALYLMKSLSPDRVAMCFARLIAGEGHHHHHH”: the “soluble on expression in E. coli” value is “soluble”. With “MSLKTELTLLEQTLTLHRFPKRNNETLQAWDAGDEYLIQHVEQLALPESSHIVIINDHFGTLSCWFSQKHKVSMMSDSYIAHQATQANLQQNQRPPVQLLTTLDPVPNDASVVLLQLPKSNRHLVWILSQLRKALSPNIPIIAVNKAKEIHTSTLNLFEKHLGPTTTSLAWKKHRLVFSSATVNPANEVNPECGWSIEPYAITLTNLPNVYSGESLDLGSRFILEHLPADPTLEDFIDLGCGNGVLSVRLGQLNPQAKITCVDESFMAIASAQKNLHDNLGKRDIHCIANNCLDGFPAHSSSMIVCNPPFHQQQTITDHIAWQMFCDSKHVLKKGGKLWVIGNRHLGYDVKLARLFGKSHVRVIANNSKFVILQAIKSEGHHHHHH”, the “soluble on expression in E. coli” value was “soluble”. Regarding “MSLKVAVIGAGAMGGLYGAYLSRKNDVYMIDINEKVVKSINENGLIIYERENNKKEKFLVSAFTDSSNLGPMDLVIIFVKNLYTTSALKNNLNLFSDSTLVITLQNGAGNDRDLEKFIKKENILIGTTEHSCSILETGEVSHNQEGITNIGMLVYNDNIIKRISDEFKACSLKTEVYQNIQEIIWSKLFINMALNSTTAILNCKVGYLEKSKDASEIVQSILSEAVDVAIADGTFFNKKEVIDKVQKCIREDLPNAITSMNQDVSNKRLTEIDHINGAVANLAKLYKIPTPYNDCIIHIIHALEGLYNEGHHHHHH”, the “soluble on expression in E. coli” value is recorded as “soluble”. “MSLKVKRPFDAYLDEMNKITILLPHAYGTSRTFRLQEGSNVKDLPIAHTIALPDATKYECFIEEPLDVGKYYTVRDERNEETDLQIGAVIRTAIFDEKYYYEGTDLGAVHQKEATTFKVWAPTARLAKVRIYKSDKEYTDYEMYREENGVWAHTLHGDLAGEKYTFLVCINLIWNEAVDPYAKSVTVNGKYGVVIDLEKTNVTKRGQLPPLQAMTDAILYELHIRDATIHPGSGVSKKGTYKGLMEEGTTGRNGTLTGLSHIKDLGVTHVELLPLYCFGGVDEANPSSAYNWGYNPLYYNAPTGYYATNPSDPYNRIVECKQLIETFHEHGIRVIIDVVYNHVYERELSSFEKLVPGYYFRHGENGMPSNGTGVGNDIASERKMMRKFIVESILYWLTEYNVDGFRFDLMGILDVDTINIIEKEVRNIKRDALLLGEGWDLQTPLPLEEKATLNNAKKMPHIAQFNDQFRDGIKGSTFHINKRGFAFGGYVDCNHLQYIASGSLLSMKETGLFLEPVQSINYVECHDNMTMWDKLMRSNEESEEILKKRHLLATAMVILSQGIPFLHAGQEFYRTKQGNENSYNANDEINQLDWDRKEKEIETVNYIKGLIAIRKEHGAFRLQNADLIKKHMTFLQTSPEVLAYHLEHVESFGPWKEIVVLFNSSLEAKTVQLPKEETWHVLVNEKQAKIEPISSFRGKELRLAPISTYILTIMEGHHHHHH”: the “soluble on expression in E. coli” value is “soluble”.

As to “MSLKVVIGYLALDDWEFESLFPTIEWKYLTHINASFARVKADGTLNINPVRKRIESVRETAHKHNVKILISLAKNSPGEFTTAINDPKARKELIQQIIAFTKEYKLDGFDIDYEEYDNWDKNFPSLLVFARGLYLAKEKNMLMTCAVNSRWLNYGTEWEQYFDYINLMSYDRGAFTDKPVQHASYDDFVKDLKYWNEQCRASKSKIVGGLPFYGYSWEESLQGAVDDVRGIRYSGILKHLGNEAADKDNIGKTYYNGRPTIANKCKFIKENDYAGVMIWQLFQDAHNDNYDLKLINVVGREMMEEGHHHHHH”, the “soluble on expression in E. coli” value was “soluble”. As for “MSLKWLKKQAELYPQKQFLNDSTFAQINQEVNKMAEHLAPLIDNQSRVALLSENSVEMAVVLFALLGLSKEVLLLNRHLTEYELADQIKELKIDKVFTSDLLTEKVTDSISFSEIWTSNPCPVSLSADFPDEKIAVIMNTSATTGKFKSVPITWGMISNHVKASKETLGAYDNDNWLVILPMFHVSGLSIIMRTLYNATSATVVDKFDENQLLEMINSGKINMVSLVPTLLTRIADKLHSNNLRLILLGGEFIPQPLIKKCQELGLPIYKTYGMTESFSQSVTFNILDFPDKTSSVGRPLPGVEIEIRQADLAGVGEIWLKSPMLMKAYLGQKPYGTAFETGDIGYLDTDGFLYLLNRRKDIIISGGENIYPKEIEDLVYSLPEIKECALVAKPDAKWGQVPILFVSGNISQEKLENFLTEKLAKYKRPQSITFMDELPKNASGKILRKELKEGHHHHHH”, the “soluble on expression in E. coli” value is reported as “soluble”.

In the case of “MSLLALGIEGTAHTLGIGIVSEKKVLANVFDTLTTEKGGIHPKEAAEHHARLMKPLLKKALEKAGISMDDIDVIAFSQGPGLGPALRVVATAARALAIRYNKPIVGVNHCIAHVEITKMFGIKDPVGLYVSGGNTQVLALEGGRYRVFGETLDIGIGNAIDVFARELGLGFPGGPKLEKLAEKGKNYIDLPYAVKGMDLSFSGLLTEAIRKYRSGKFRVEDLAYSFQETAFAALVEVTERALAHTEKKEVVLVGGVAANNRLREMLKIMAEDRGVKFFVPPYDLCRDNGAMIAYTGLRMYKAGISFPLEKTIVKQKFRTDEVEITWEGHHHHHH”, the “soluble on expression in E. coli” value was “not soluble”. For “MSLLLSATTSIHDLVTSHPYLIEVLADYAPAFAKLRNPLLRNTLGRVATLQQAADLAGLELTGLMAHLARAIMEHTKEAVTLVPRGAETPAHAVADGDSGCGGCTPRPAEGNTADRATRLATLRALLERLHQGTPLADLKEAFASAVGGISAAEVASLEKELVAGGVAETEIKRLCSLHVDIFREALAPQHVPDMPPGHPVHTYRAENAEATRIADEIISQIDRMRSVPGDTESPLDELAWSFSRRHVADLLADLAHVERHYTRKEMQLFPMLEENGIEAPPKVMWEVHDDIRSLLRKARETVEGPSPVAAATVARDAALAVKDMVDKEETVLFPMALESLTEAQWGRVRHGEDEIGYAWVTPEGEWTPQAADTPESLTMEGAATGTPDRVTLGTGTLTVETLDRMLRTLPLDLSLVDAEDRVAYYTDSTHRIFPRSAGVIGRNVRNCHPPKSVHMVEEILARFKTGERDEAAFWIELGGRFLHIRYFAVRSDEGRYLGCLEVAQDVTDIRALSGQRRLLDWNEGHHHHHH”, the “soluble on expression in E. coli” value was “not soluble”. In the case of “MSLLRPLSKTDCPMLQEINAKALGYLVSLDLLERQYERLIEDCHHYFLAYADKDTNQLLGYVHAERYETLYASDGLNLLGLAVLPAYQRRGIGSALLRALESQARQEGIAFIRLNSASHRKEAHAFYRNLDYADDKTQLRFIKNLQGDDNDFEGHHHHHH”, the “soluble on expression in E. coli” value is on record as “soluble”.

Turning to “MSLLSYRHGFHAGNQADVFKHSALFSFLKVYTQKQKPFTAFDLNAGSASYNLLSEWSLKTGEAEEGIIRFLDLYKKEKLPLPIPEGFKAYLDFCLKNYDENSSYAGSPEIIRSFLQKESNLILCDLHSAEAEKLKELYKRVENVHVHKRDCYEAVRALTPPLPIRGFALFDPSYEVDSDYTAIAESVEKVCKKWPIGIFIIWYPILNHKTEECRNLKDRISKAMNNKVLNIEVKHFSNKIDSENEYGLQGSGLLITNPPWGLEEKLKEICEYVEKVSAGLDEGHHHHHH”, the “soluble on expression in E. coli” value is given as “soluble”.
